Reference: the supplement of paper PMC11246515
± gives the standard deviation of the averaged measurements.

Test: total protein half-life in vivo (active degradation + dilution); higher = more stable protein
[1] = E. coli NCM3722 delta-clpP delta-lon delta-hslV, growth: N-lim chemostat, doubling time 6 h
[2] = E. coli NCM3722 delta-clpP, growth: N-lim chemostat, doubling time 6 h
[3] = E. coli NCM3722 delta-hslV, growth: N-lim chemostat, doubling time 6 h
[4] = E. coli NCM3722 delta-lon, growth: N-lim chemostat, doubling time 6 h
[5] = E. coli NCM3722 delta-smpB, growth: N-lim chemostat, doubling time 6 h
[6] = wild type E. coli NCM3722, growth: C-lim chemostat, doubling time 3 h
[7] = wild type E. coli NCM3722, growth: C-lim chemostat, doubling time 6 h
[8] = wild type E. coli NCM3722, growth: C-lim chemostat, doubling time 12 h
[9] = wild type E. coli NCM3722, growth: N-lim chemostat, doubling time 6 h
[10] = wild type E. coli NCM3722, growth: N-lim chemostat, doubling time 12 h
[11] = wild type E. coli NCM3722, growth: P-lim chemostat, doubling time 6 h
[12] = wild type E. coli NCM3722, growth: P-lim chemostat, doubling time 12 h

Chain of P0AFC7 (chain, as listed by the source): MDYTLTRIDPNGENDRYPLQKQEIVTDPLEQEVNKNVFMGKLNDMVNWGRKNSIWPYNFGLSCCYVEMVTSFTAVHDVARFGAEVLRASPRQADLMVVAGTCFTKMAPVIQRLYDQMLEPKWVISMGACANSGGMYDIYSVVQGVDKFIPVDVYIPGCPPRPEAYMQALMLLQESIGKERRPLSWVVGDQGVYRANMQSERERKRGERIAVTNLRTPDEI

Row | Substance | total protein half-life in vivo [1] [h] | total protein half-life in vivo [2] [h] | total protein half-life in vivo [3] [h] | total protein half-life in vivo [4] [h] | total protein half-life in vivo [5] [h] | total protein half-life in vivo [6] [h] | total protein half-life in vivo [7] [h] | total protein half-life in vivo [8] [h] | total protein half-life in vivo [9] [h] | total protein half-life in vivo [10] [h] | total protein half-life in vivo [11] [h] | total protein half-life in vivo [12] [h]
1 | MYQDLIRNELNEAAETLANFLKDDANIHAIQRAAVLLADSFKAGGKVLSCGNGGSHCDAMHFAEELTGRYRENRPGYPAIAISDVSHISCVGNDFGFNDIFSRYVEAVGREGDVLLGISTSGNSANVIKAIAAAREKGMKVITLTGKDGGKMAGTADIEIRVPHFGYADRIQEIHIKVIHILIQLIEKEMVK | 4.5 ± 0.5 | 4.44 ± 0.26 | 4.63 ± 0.36 | 5.19 ± 0.35 | 4.26 ± 0.082 | 3.04 ± 0.14 | 5.89 ± 0.46 | 11 ± 0.45 | 4.37 ± 0.08 | 7.07 ± 0.52 | 5.73 ± 0.15 | 11.13 ± 0.11
2 | MYRIGELAKMAEVTPDTIRYYEKQQMMEHEVRTEGGFRLYTESDLQRLKFIRHARQLGFSLESIRELLSIRIDPEHHTCQESKGIVQERLQEVEARIAELQSMQRSLQRLNDACCGTAHSSVYCSILEALEQGASGVKSGC [P0ACS5] | 4.46 ± 0.81 |  |  | 2.16 | 0.555 ± 0.043 |  | 0.866 | 1 | 0.748 ± 0.26 |  |  | 
3 | MYTKIIGTGSYLPEQVRTNADLEKMVDTSDEWIVTRTGIRERHIAAPNETVSTMGFEAATRAIEMAGIEKDQIGLIVVATTSATHAFPSAACQIQSMLGIKGCPAFDVAAACAGFTYALSVADQYVKSGAVKYALVVGSDVLARTCDPTDRGTIIIFGDGAGAAVLAASEEPGIISTHLHADGSYGELLTLPNADRVNPENSIHLTMAGNEVFKVAVTELAHIVDETLAANNLDRSQLDWLVPHQANLRIISATAKKLGMSMDNVVVTLDRHGNTSAASVPCALDEAVRDGRIKPGQLVLLEAFGGGFTWGSALVRF [P0A6R0] | 5.01 ± 0.12 | 4.93 ± 0.2 | 4.91 ± 0.11 | 5.578 ± 0.021 | 4.564 ± 0.018 | 2.89 ± 0.036 | 5.36 ± 0.51 | 9.94 ± 0.71 | 4.91 ± 0.27 | 9.3 ± 1 | 5.907 ± 0.0094 | 12.9 ± 1.5
4 | MYTQTLYELSQEAERLLQLSRQQLQLLEKMPLSVPGDDAPQLALPWSQPNIAERHAMLNNELRKISRLEMVLAIVGTMKAGKSTTINAIVGTEVLPNRNRPMTALPTLIRHTPGQKEPVLHFSHVAPIDCLIQQLQQRLRDCDIKHLTDVLEIDKDMRALMQRIENGVAFEKYYLGAQPIFHCLKSLNDLVRLAKALDVDFPFSAYAAIEHIPVIEVEFVHLAGLESYPGQLTLLDTPGPNEAGQPHLQKMLNQQLARASAVLAVLDYTQLKSISDEEVREAILAVGQSVPLYVLVNKFDQQDRNSDDADQVRALISGTLMKGCITPQQIFPVSSMWGYLANRARYELANNGKLPPPEQQRWVEDFAHAALGRRWRHADLADLEHIRHAADQLWEDSLFAQPIQALLHAAYANASLYALRSAAHKLLNYAQQAREYLDFRAHGLNVACEQLRQNIHQIEESLQLLQLNQAQVSGEIKHEIELALTSANHFLRQQQDALKVQLAALFQDDSEPLSEIRTRCETLLQTAQNTISRDFTLRFAELESTLCRVLTDVIRPIEQQVKMELSESGFRPGFHFPVFHGVVPHFNTRQLFSEVISRQEATDEQSTRLGVVRETFSRWLNQPDWGRGNEKSPTETVDYSVLQRALSAEVDLYCQQMAKVLAEQVDESVTAGMNTFFAEFASCLTELQTRLRESLALRQQNESVVRLMQQQLQQTVMTHGWIYTDAQLLRDDIQTLFTAERY [P0DM85] |  |  |  |  |  | 2.44 ± 0.21 |  | 5.52 ± 1.4 |  |  | 3.43 ± 0.63 | 6.3 ± 0.69
5 | MYTSGYAHRSSSFSSAASKIARVSTENTTAGLISEVVYREDQPMMTQLLLLPLLQQLGQQSRWQLWLTPQQKLSREWVQASGLPLTKVMQISQLSPCHTVESMVRALRTGNYSVVIGWLADDLTEEEHAELVDAANEGNAMGFIMRPVSASSHATRQLSGLKIHSNLYH [P0AFZ5] | 5.07 ± 0.91 |  |  | 0.671 ± 0.059 |  |  |  |  |  |  |  | 
6 | P0AAG3 | 6.26 ± 0.74 | 6.4 ± 1.1 | 6.83 ± 1.4 | 6.053 ± 0.0072 | 5.56 ± 0.4 | 3.02 ± 0.25 | 6.06 ± 0.07 | 11.3 ± 0.26 | 5.82 ± 0.16 | 11.6 ± 0.28 | 5.56 ± 0.15 | 11.4 ± 1.6
7 | P0ADE2 | 1.56 |  |  |  |  |  | 0.174 |  |  |  | 0.104 | 0.888 ± 0.58
8 | P0AFC7 | 6.19 ± 0.65 | 5.993 ± 0.019 | 6.34 ± 0.17 | 5.81 ± 1.1 | 5.87 ± 0.17 | 2.92 ± 0.093 | 5.98 ± 0.26 | 11.2 ± 1.5 | 6.54 ± 0.77 | 12.5 ± 0.86 | 5.59 ± 0.15 | 12.5 ± 0.61
9 | P76347 | 6.25 ± 0.88 | 1.86 |  |  |  |  |  |  |  | 3.04 |  | 
10 | P76578 | 6.589 ± 0.03 |  | 6.54 ± 0.12 | 6.81 ± 0.67 | 6.09 ± 0.11 | 3.08 ± 0.13 | 6.17 ± 0.39 | 13.4 ± 0.82 | 6.17 ± 0.06 | 13.1 ± 0.32 | 6.16 ± 0.085 | 12.7 ± 0.14
